This passage reports spectrophotometric assay, Km and kcat results from article PMC5705181 (Science (New York, N.Y.), 2017).

Series [1] has as its target P5C reductase (Clostridioides difficile, UniProt Q180C5). Description: spectrophotometric assay. The note with it: mere turnover. The series is classed as biochemical.
Substrate in series [2]: O=C(O)[C@@H]1C[C@@H](O)CN1
As to the kind of experiment: purified protein. The series is classed as biochemical, Clostridioides difficile. The note with it: activated by t4LHypD-AE, SAM, acriflavine; anaerobic.

Substrate in series [3]: C[C@@H](O)CO
Description: purified protein. The note with it: activated by PD-AE, SAM, 5-deazariboflavin; anaerobic.

Substrate in series [4]: C[C@H](O)CO
As to the kind of experiment: purified protein. The note with it: activated by PD-AE, SAM, 5-deazariboflavin; anaerobic.

Regarding `O=C(O)[C@@H]1CCC=N1` [Δ^1-pyrroline-5-carboxylate], in series [1] (NADH as reductant in the coupled assay), the spectrophotometric assay result was “P5C reductase could interconvert P5C and L-proline”.

`O=C(O)[C@@H]1CCCN1` [L-proline]: the spectrophotometric assay entry in series [1] (reverse direction (interconversion with P5C)) is “P5C reductase could interconvert P5C and L-proline”.

B1: t4LHypD (trans-4-hydroxy-L-proline dehydratase, GRE Cluster 15) (Clostridioides difficile) (protein)
chain: MARGTFERTKKLREESINAEPHISIERAVLMTEAYKKYEGSVEIPVLRALSFKHYIENRTLSINDGELIVGEKGDSPNGAPTYPEICCHTMEDLEVMHNRDIINFSVSEEARKIHKEEIIPFWKKRQTRDKIINAMTPEWLAAYEAGMFTEFMEQRAPGHTVCGDTIYKKGFLDLKKDIEARLKELDFLNDLDAYNKKADLEAMAIACDAMVILGKRYAEKARQMAEEETDEAKKKDLLLIAETCDVVPAHKPETYHQAIQMYWFVHIGVTTELNIWDAFTPGRLDQHLNPFYERDVENGILDRDRAQELLECLWVKFNNQPAPPKVGITLKESSTYTDFANINTGGINPDGQDGVNEVSYIILDVMDEMKLIQPSSNVQISKKTPQKFLKRACEISRKGWGQPAFYNTEAIVQELMEAGKTIEDARLGGTSGCVETGCFGKEAYVLTGYMNIPKILELTLNNGYDPISKKQIGIETGDPRNFQSYEELFEAFKKQLHYMIDIKIEGNAVIENICAKHMPCPLMSTIVDDCIEKGKDYQRGGARYNTRYIQGVGIGTITDSLTAIKYNVFDKKKFDMDTLLKALDANFEGYEAILNLVSNKTPKYGNDDDYADEIMQEIFNAYYNEVTGRPTVCGGEYRVDMLPTTCHIYFGEIMGASPNGRLCAKPVSEGISPEKGGDTNGPTAVIKSCAKMDHIKTGGTLLNQRFAPSVVQGEKGLDNMANLVRAYFNMDGHHIQFNVFDKNVLLEAQKNPQDYKDLIVRVAGYSDHFNNLSRTLQDEIIGRTEQTF
As to B1, in series [2], the Km was 1.2 ± 0.1 mM and the kcat was found to be 45 ± 1 s⁻¹.

B2: PD (propanediol dehydratase, GRE Cluster 16) (Roseburia inulinivorans) (protein)
chain: MGNYDSTPIAKSDRIKRLVDHLYAKMPEIEAARAELITESFKATEGQPVVMRKARAFEHILKNLPIIIRPEELIVGSTTIAPRGCQTYPEFSYEWLEAEFETVETRSADPFYISEETKKRLLAADAYWKGKTTSELATSYMAPETLRAMKHNFFTPGNYFYNGVGHVTVQYETVLAIGLNGVKEKVRKEMENCHFGDADYSTKMCFLESILISCDAVITYANRYAKMAEEMAEKETDAARRQELLTIARVCKNVPEFPAESFQEACQSFWFIQQVLQIESSGHSISPGRFDQYMYPYYEKDLKEGSLTREYAQELIDCIWVKLNDLNKCRDAASAEGFAGYSLFQNLIVGGQTVQGRDATNDLSFMCITASEHVFLPMPSLSIRVWHGSSKALLMRAAELTRTGIGLPAYYNDEVIIPALVHRGATMDEARNYNIIGCVEPQVPGKTDGWHDAAFFNMCRPLEMVFSNGYDNGEIASIQTGNVESFQSFDEFMEAYRKQMLYNIELMVNADNAIDYAHAKLAPLPFESCLVDDCIKRGMSAQEGGAIYNFTGPQGFGIANVADSLYTIKKLVFEEKRITMGELKKALEMNYGKGLDATTAGDIAMQVAKGLKDAGQEVGPDVIANTIRQVLEMELPEDVRKRYEEIHEMILELPKYGNDIDEVDELAREAAYFYTRPLETFKNPRGGMYQAGLYPVSANVPLGAQTGATPDGRLAHTPVADGVGPTSGFDISGPTASCNSVAKLDHAIASNGTLFNMKMHPTAMAGEKGLESFISLIRGYFDQQGMHMQFNVVDRATLLDAQAHPEKYSGLIVRVAGYSALFTTLSKSLQDDIIKRTEQADNR
Regarding B2, in series [3], the Km came out at 44 ± 4 mM and the kcat stood at 330 ± 40 s⁻¹. Further, in series [4], the Michaelis constant (Km) is given as 8 ± 1 mM and the kcat is 1500 ± 100 s⁻¹.
